The data set can be described thus: yeast display, Sf9 membrane polyspecificity reagent, FACS + sequencing; frameworks hold sequencing errors. An outline of the steps:
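Galactose-induced (36–48 hours) yeast carrying a synthetic nanobody display library were exposed to 10% biotinylated, detergent-solubilized Sf9 membrane reagent at 4 °C for 1 hour. FACS followed streptavidin microbead enrichment, using low and high (top ~1%) gates for expression (anti-HA) and reagent binding (streptavidin). Colony PCR, MiSeq 2 × 250 sequencing and CDR-length filtering followed. Labels for polyreactivity reflect the gate of origin.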
As to “QVQLVESGGGLVQAGGSLRLSCAASGRTFVPYAMGWYRQAPGKERELVAAISARGSSTYYADSVKGRFTISRDNAKNTVYLQMNSLKPEDTAVYYCNAVGARVASATGMEYWGQGTQVTVSS”, the “polyreactivity (PSR sort gate)” value is “high polyreactivity”.

Turning to “QVQLVESGGGLVQAGGSLRLSCAASGRIYKSYAMGWYRQAPGKERELVAAIRSGGSTYYADSVKGRFTISRDNAKNTVYLQMKSLKPEDTAVYYCAADRYSYGSNGYPRFEYYYWGQGTQVTVSS”, the “polyreactivity (PSR sort gate)” value was “high polyreactivity”. As for “QVQLVESGGGLVQAGGSLRLSCAASGFIFYTYAMGWSRLAPGKEREFVASISKSGGRTYYADSVKRRFTMSRDNAKNTVYLQMISLKPEVTAVYYCNAYRSTHFFSYRDDYWGQGTQVTVSS”, the entry is “high polyreactivity”; as for “QVQLVESGGGLVQAGGSLRLSCADSGLIIARNAMVWYRHAPGTERELVAAITRGGSTYYADSVKGSFTISRDNAKNTVYLLMNSLKPEDTAVYYCNARFRRYYYYGMDYWGQGTQVTVSS”, “high polyreactivity”; as for “QVQLVESGGGLVQAGGSLRLSCAASGSTFPWYAMVWYRQAPGKERELVAAIRWRGGSTYYADSVKGRFTISRDNAKNTVYLQMNSLKPEDTAVYYCAADPTYLRTLRFGSYDYWGQGTQVTVSS”, “high polyreactivity”. The value for “QVKLVETGGGLVQAGGSLRLSCAASGRTFTPYTMGRYRQAPGKEREFVAAITFRGGSTYYADSVKGRFTISRDIAKNTVYLQMNSLKPEDTEVYFCNARGHGGWGTSMYYWGHGTQVTVSS” was “high polyreactivity”. As for “QVQLVESGGGLVQAGGSLRLSCAASGSIFVYNPMGSYREPPGKERELVAAISQRGGSTYYADSVKGRFTISRDNANNTVYLQMYSLKPEDTAVYYCAAGPGDSGDDYWGQGTQVTVSS”, the entry is “low polyreactivity”. For the sequence “QVQLVESGGGLVQAGGSLRLSCAASGIIFYYNAMGWNRKAPGKERELVAAISQRGSSTYYADSVKGRFTISRDNAQNTVYLQMNSLKPEDTAVYYCAKRFIYGRYNYWGQGTQVTVSS”, the “polyreactivity (PSR sort gate)” value was “high polyreactivity”.

On to “QVQLVESGGGLVQSGGSLRLSCAASGRTFKSYAMGWYRQAPGKERELVAAITWSGGSTYYADSVKGRFTISRDNAKITVYFQMNSLKPEDTAVYYCAADSVYYYWYGYDYWGQGTQVTVSS”, for which the “polyreactivity (PSR sort gate)” value is reported as “low polyreactivity”. With “QVQLVESGGGLVQAGGSLRLSCAASGLTFKRYVMGWYRQAPGKERELVAAITVSGGNTYYADSVKGRFTISRDNAKNTVYLQMNSLKPEDTAVYYCNADAGAIYYRRYHFYYWGQGTQVTVSS”, the “polyreactivity (PSR sort gate)” value is listed as “low polyreactivity”. As for “QVQLEEAGGGLVQAGGSLSLSCAASGSILKVYAMGWSRQAPGQERELVAGNTRAGGSTNDADSVKGRFTISRDYAKNTVLLQMNSLKPEDTPVYYCAGRLKCYRRRDYWGQGTQVSVSS”, the “polyreactivity (PSR sort gate)” value is recorded as “high polyreactivity”. In the case of “QVQLVESGGGLVQAGGSLSLSCAASGYTFLRYAMGWYRQAPGQERELVATISRSGGRTYYADSVKGRFTISRDNAKNTVYLLMNSLKPEDTSVYYCNAEAIVVNGGGYWGQGTQVTVSS”, the “polyreactivity (PSR sort gate)” value is given as “high polyreactivity”. As for “QVQLVESGGGLVQAGGSLRLSCAASGRTFWFYTMGWYRQAPGKERELVADIRRSGGSTYYADSVKGRFTISRDNAKNTVYLQMNSLKPEDTAVYYCASDPRRLAAGYTRYVYWGQGTQVTVSS”, the entry is “high polyreactivity”; as for “QVQLVESGGGIVQAGGSLRLSCAASGRTFRINGMGWYRQAPGKERELIAAISDGGSTNYADSVKGRFTISRDNAKNTVYLQMNSLKPEDTAVYYCAVDPYYFFYDEWLGDPNFDYWGQGTQVTVSS”, “low polyreactivity”; as for “QVQLVESGGGLVQAGGSLRLSCAASGRIFVKYAMGWYRQAPGKERELVAAIRSGGSTYYADSVKGRFTISRDNAKNTVYLQMNSLKPEDTAVYDCAADRNKHHYYTEPYDYWGQGTQVTVSS”, “low polyreactivity”.

As to “QVQLVESGRGLVQAGGSLRLSCAASGRIFKTYAMGWYRQAPGKERELVAAITTSGDSTYYADSVKGRFTISRDNAKNTVYLQMNSLKPEDTAVYYCAARPRVRSSYRYYYWGQGTQLTVSS”, the “polyreactivity (PSR sort gate)” value is “high polyreactivity”. “QVQLVESGGGLVQAGGSLRLSCAASGSIFRYYAMGWYRQAPGKERELVADITSSGGSTYYADSVKGRFTISRDNAKNTVYLQMNSLKPEDTAVYYCASLYWFYVYPFTEYDYWGQGTQVTVSS”: the “polyreactivity (PSR sort gate)” value is recorded as “low polyreactivity”. As for “QVQLVESGGGLVQAGGSLRLSCAASGRTFYPYAMGWYRQAPGKERELVAAISSGGSTTYADSVKGRFTISRDNAKNTVYLQMNSLKPEDTAVYYCAVYGTERLAFDYWGQGTQVTVSS”, the entry is “low polyreactivity”.

As for “QVQLVESVGGLVQAGGSLRLSCASSGFTFRFYVMGWSRQAPGKERELVAAITASGGTTYYADSVKGRFTISRDNAKNTVYLQMNSLKPEDTAVYYCNARYYYLYGYDYWGQGTQVTVSS”, the “polyreactivity (PSR sort gate)” value is given as “high polyreactivity”. The value for “QVQLVESGGGLVQAGGSLRLSCAASGSTFYYYAMGWYRQAPGKERELVASITTGGGSTYYADSVKGRFTISRDNAKNTVYLQMNSLKPEDTAVYYCAAALAYYYWWYDYWGQGTQVTVSS” was “low polyreactivity”; that for “QVQLVESGGGLVQAGGSLRLRCAASGSIFTSYALGWYRQAPGKERELVAAINGSGGSTFYADSVKSRFTISRDNAKYTFYLQMNSLKPEDTAVYYCNTGGPRGTTYDFWGLGTQVTVSS” was “low polyreactivity”. The value for “QVQLVDSGGGLVQAGGSLRLSCAASGRTFYFNAMGWYRQAPGKERELVAAITSSDSTYYADSVKGRFTISRDNAKNTVYLQMISLKPEDTAVYYCNADYFYWREMDYWGQGTQVTVSS” was “low polyreactivity”; that for “QVQIVESGAGLVQAGGSLRISCAPSGRTFLYNAMGWYIQAPGKESELVAAIDGGTGSTYYADSVKARFTISRDNAKNTVYLQMIRLNPEDTAGYYCAAETYGVGYPVNYDYWGQGTQVTVSS” was “low polyreactivity”.

For “QVQLVESGGGLVQAGGSLRLSCAASGSIFQPYAMGWYRQAPGKERELVAAITNGGSTYYADSVKGRFTISRDNAKNTVYLQMNSLKPEDTAVYYCAADVQSSHEYDYWGQGTQVTVSS”, the “polyreactivity (PSR sort gate)” value is reported as “low polyreactivity”.

As for “QVQLVESGGGIVQAGGSLRLSCAASGLTFVNYAMGSYRQAPGKERELVAAITVNGGRTYYADSVKGRFTISRDNAKNTVYLQMFSLKPEDTAVYFCAAVYYRHGYTYSSDYWGQGTQVTVSS”, the “polyreactivity (PSR sort gate)” value was “high polyreactivity”. As for “QVQLVESAGGLVQAGGSLRLSCAASGLTQASYAMGWYRQAPGKERELVAAISRRSGRTYYADSVKGRFTISRDNAKNTVYLQMNSLKPVDTAVYYCNRGYTAQVYTEFDYWGQGTQVTVSS”, the entry is “low polyreactivity”; as for “QVQLVESGGGLVQAGGSLRLSCAAAGIISPFYAMGWYRQAPGKERELVADISTGGTTTYADSVKGRFTISRDNAKNTVYLQMNSLKPVDTAVYYCNAEVCLTYYWIVWASYDYWGQGTQVTVSS”, “low polyreactivity”. As for “QVQLVESGGGLVQAGGSLRLSCAASGSTFFYNAMGWYRQAPGKERELVAAISWSGGRTYYADSVKGRFTISRDNAKNTVYLQMNSLKPEDTAVYYCNTVVSKYYKVGFGSWGHGTQVTVSS”, the entry is “high polyreactivity”; as for “QVQLVESGGGLVQAGGSLRLSCAASGSTFERNTMGWYRQAPGKERELVASISRGDGTYADSVKGRFTISRDNAKNTVYLQMNSLKPEDTAVYYCAAVQRESGSDYDYWGQGTQVTVSS”, “low polyreactivity”; as for “QVQLVESGGGLVQAGGSLRLSLAASGLSLRNYAMGWYRQAPGKERELVADITTGGGRTYYADSVKGRFTISRDNAKNTVYLQMNSLKPEDTAVYYCAAPTHLHGHGNQNEFYYWGQGTQVTVSS”, “low polyreactivity”. Turning to “QVQLVESGGGLVQAGGSLRLSCAASGSTFGRYAMGWYRQAPGKERELVAAISRRGASTYYADSVKGRFTISRDNAKNTVYLQMNSLKPEDTAVYYCATGYPIDLGREFDYWGQGIQVTVSS”, the “polyreactivity (PSR sort gate)” value is “high polyreactivity”. The value for “QVQLVESGGGLVQAGGTLRLSCAASGSTFELNVMGWYRQAPGKERELVAAISSGTSTNYADSVKGRFTISRDNAKYTVYLHLKSVKPVDTAVYYCAADPFTIPTSDFYYWGQVTQVTVSS” was “low polyreactivity”. In the case of “QAQLQESAGSLVQAGGGLRLSCAASGYISVGSVKGWYRQAPSKERELVASIDQGANTNYADSVKGRFTISRDNAKNNVYLQMNSLIPEDTAVYYCATETTYILNYWGQGTQVTVSS”, the “polyreactivity (PSR sort gate)” value is given as “low polyreactivity”. The value for “QVQLVESGGGLVQAGGSLRLSCAASGFIFPRYAMGWYRQAPGKERELVAAISYSGGSTYYADSVKGRFTISRDNAKNTVYLQMNSLKPEDTAVYYCNTAPWWRTSSDYEYWGQGTQVTVSS” was “high polyreactivity”; that for “QVQLVESGGGLVQAGGSLRLSCAASGRILKYYDMGWYRQAPGKERELVAAISVSGTSTYYADSVKGRFTISRDNAKNTVYLQMNSLKPEDTAVYYCATATGRYSFDYWGQGTQVTVSS” was “low polyreactivity”; that for “QVQLVESGGGLVQAGGSLRLSCAASVFTFPPYAMGWSRQAPGKERELVAAISSAGSTKYADSVKGRFTISRDNAKNTVYLQMNSLKPEDTAVYYCAARWARSYDYWGQGTQVTVSS” was “low polyreactivity”. As for “QVQLVESGGGLVQAGGSLRLSCAASGFTITDYAMGWYRQAPGKVRELVAAITWSGGSTYYADSVKGRFTLSRDNAKNTVYLQMNSLKPEDTAVYYCNKVTEGLKMDYWGQGTQVTVSS”, the entry is “low polyreactivity”. As for “QVQLVESGGGLVQAGGSLRLSCAASGLTFGGNAMGWYRQAPGKERELVAGISWSGGNTNYADSVKGRFTISRDNAKNTVYLQMNSLKPEDNAVYYCNKATNLSGGYDSWGQGTQVTVSS”, the entry is “low polyreactivity”; as for “QVQLVESGGGLVQAGGSLRLSCAASGSIFGLYAMGWYRQAPGNERELVAAINQSGGSTSYADSVKGRFTISRDNAKNTVYLQMNSLKPEDTAVYYCAAKRSWGATRRAYGRYDYWGQGTQVTVSS”, “low polyreactivity”. As for “QVQLVESGGGLVQAGGSLRLSCAASGSISYRYDMGWYRQSPGKERELVATIRSGGSTNYADSVKGRFTISRDNAKNTVYLQMNSLKPEDTAVYYCAARLYARKKLHFSADSDYWGQGSQVTVSS”, the “polyreactivity (PSR sort gate)” value is listed as “low polyreactivity”.

In the case of “QVQLVDSGGGLVQAGCSLRLSCAASGSTFVTNDMGWSRKAPGKERELVAAISSGTSTNYADSVKGRFTISRDNAKNTFYLQMNSLNPEDTAVYYCAADSLKRDDYWGQGTQVTVSS”, the “polyreactivity (PSR sort gate)” value is reported as “low polyreactivity”.

For the origin of these results see the nanobody polyreactivity screen of Harvey et al. (2022).
